Laboratory results reported in publication PMC12169553.
Values belong to the molecule of their own block, whether it stands above or below them.

What was measured:
Assay in all cases: SEC; Superdex 200 increase column, 40 mM potassium phosphate, 300 mM NaCl, pH 6.5, 1 mL/min, detection at 220 nm; drug products reconstituted in water for injection
[1] = molecular target: L-Aspase (E. coli L-asparaginase) (E. coli) (UniProt P00805)
[2] = molecular target: T1, Spectrila (recombinant E. coli L-asparaginase type II) (E. coli), P00805; settings: remark: other sources report otherwise
T1 chain: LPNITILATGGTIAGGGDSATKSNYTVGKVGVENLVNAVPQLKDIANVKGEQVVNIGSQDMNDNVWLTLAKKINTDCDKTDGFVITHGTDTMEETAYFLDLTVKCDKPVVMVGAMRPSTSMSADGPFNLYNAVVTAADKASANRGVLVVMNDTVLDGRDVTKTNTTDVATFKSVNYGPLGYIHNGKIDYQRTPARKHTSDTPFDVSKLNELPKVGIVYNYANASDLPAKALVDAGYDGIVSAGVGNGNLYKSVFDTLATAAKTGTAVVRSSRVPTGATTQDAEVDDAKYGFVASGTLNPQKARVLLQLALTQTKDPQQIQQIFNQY

[3] = molecular target: T2, Bionase (E. coli L-asparaginase) (E. coli), P00805; settings: remark: other sources report otherwise
T2 chain: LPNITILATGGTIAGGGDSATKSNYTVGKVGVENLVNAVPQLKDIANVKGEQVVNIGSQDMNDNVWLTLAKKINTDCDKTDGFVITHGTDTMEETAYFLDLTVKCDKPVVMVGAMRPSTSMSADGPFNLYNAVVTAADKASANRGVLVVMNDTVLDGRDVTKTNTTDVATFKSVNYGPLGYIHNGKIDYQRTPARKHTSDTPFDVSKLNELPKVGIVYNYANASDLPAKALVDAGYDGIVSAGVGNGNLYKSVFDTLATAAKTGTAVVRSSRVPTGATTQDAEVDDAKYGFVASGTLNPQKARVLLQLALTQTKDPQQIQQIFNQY

[4] = molecular target: T3, Celginase (E. coli L-asparaginase) (E. coli), P00805; settings: remark: other sources report otherwise
T3 chain: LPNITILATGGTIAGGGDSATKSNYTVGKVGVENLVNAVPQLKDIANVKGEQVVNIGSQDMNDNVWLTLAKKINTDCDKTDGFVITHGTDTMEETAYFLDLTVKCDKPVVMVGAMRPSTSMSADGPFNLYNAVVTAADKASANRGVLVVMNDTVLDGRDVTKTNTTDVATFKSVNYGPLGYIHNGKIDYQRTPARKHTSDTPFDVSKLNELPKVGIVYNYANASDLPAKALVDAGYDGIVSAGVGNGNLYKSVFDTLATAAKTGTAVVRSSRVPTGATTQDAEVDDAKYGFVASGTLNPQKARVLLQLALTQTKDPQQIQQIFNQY

B2: Bionase (E. coli L-asparaginase), P00805 23-348 (enzyme)
chain: LPNITILATGGTIAGGGDSATKSNYTVGKVGVENLVNAVPQLKDIANVKGEQVVNIGSQDMNDNVWLTLAKKINTDCDKTDGFVITHGTDTMEETAYFLDLTVKCDKPVVMVGAMRPSTSMSADGPFNLYNAVVTAADKASANRGVLVVMNDTVLDGRDVTKTNTTDVATFKSVNYGPLGYIHNGKIDYQRTPARKHTSDTPFDVSKLNELPKVGIVYNYANASDLPAKALVDAGYDGIVSAGVGNGNLYKSVFDTLATAAKTGTAVVRSSRVPTGATTQDAEVDDAKYGFVASGTLNPQKARVLLQLALTQTKDPQQIQQIFNQY
stoichiometry N [3]: 4

B3: Celginase (E. coli L-asparaginase), P00805 23-348 (enzyme)
chain: LPNITILATGGTIAGGGDSATKSNYTVGKVGVENLVNAVPQLKDIANVKGEQVVNIGSQDMNDNVWLTLAKKINTDCDKTDGFVITHGTDTMEETAYFLDLTVKCDKPVVMVGAMRPSTSMSADGPFNLYNAVVTAADKASANRGVLVVMNDTVLDGRDVTKTNTTDVATFKSVNYGPLGYIHNGKIDYQRTPARKHTSDTPFDVSKLNELPKVGIVYNYANASDLPAKALVDAGYDGIVSAGVGNGNLYKSVFDTLATAAKTGTAVVRSSRVPTGATTQDAEVDDAKYGFVASGTLNPQKARVLLQLALTQTKDPQQIQQIFNQY
stoichiometry N [4]: 4

Continued, values first:

stoichiometry N [1]: 4
Molecule: L-Aspase (E. coli L-asparaginase) (from UniProt P00805 23-348) (enzyme)

stoichiometry N [2]: 4
B1: Spectrila (recombinant E. coli L-asparaginase type II), P00805 23-348 (enzyme)
chain: LPNITILATGGTIAGGGDSATKSNYTVGKVGVENLVNAVPQLKDIANVKGEQVVNIGSQDMNDNVWLTLAKKINTDCDKTDGFVITHGTDTMEETAYFLDLTVKCDKPVVMVGAMRPSTSMSADGPFNLYNAVVTAADKASANRGVLVVMNDTVLDGRDVTKTNTTDVATFKSVNYGPLGYIHNGKIDYQRTPARKHTSDTPFDVSKLNELPKVGIVYNYANASDLPAKALVDAGYDGIVSAGVGNGNLYKSVFDTLATAAKTGTAVVRSSRVPTGATTQDAEVDDAKYGFVASGTLNPQKARVLLQLALTQTKDPQQIQQIFNQY
